According to patent US20130012693:

Key:
[1] = molecular target: beta-NGF (Homo sapiens) (UniProt P01138); assay: cell_activity; conditions: PC12 neurite growth, 0.38 nM NGF
[2] = molecular target: beta-NGF (Homo sapiens) (UniProt P01138); assay: filter; conditions: BndU at Z' (n) positions [n positions 30,37,38,43,44,45,51,52,54 = modified dU]; SB17T-0.002, 37 C; Zorbax resin capture

Chain of beta-NGF (Homo sapiens) (P01138 122-241): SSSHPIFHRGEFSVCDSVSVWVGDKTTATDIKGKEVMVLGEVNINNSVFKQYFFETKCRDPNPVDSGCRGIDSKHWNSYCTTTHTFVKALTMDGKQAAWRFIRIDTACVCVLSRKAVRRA

Row | Sequence | IC50 ([1]; BndU at Z' (n) positions, 3'-idT in cell assays [n positions 3,10,11,16,17,18,24,25,27 = modified dU]) [nM] | IC50 ([1]; BndU at Z' (n) positions [n positions 30,37,38,43,44,45,51,52,54 = modified dU], 3'-idT) [nM] | Kd [2] [nM]
1 | CATGAGGACTTGGGGTTTAGCCGTTGTG [2426-66-50] | 1 |  | 
2 | GAGTGACCGTCTGCCTGCAGCGGGACACATGAGGACTTGGGGTTTAGCCGTTGTGGCACAGAGAAGAAACAAGACC [2426-66] |  | 2 | 5
